The values that follow come from article PMC3280358 (2012).

Where a chain is given by its changes, count along the chain named. Numbers in names are those of the source.

Broadly, the Kd is the free concentration of one partner at which half of the binding sites on the other are occupied at equilibrium, for simple one-to-one binding. Low values mean higher affinity, high ones lower affinity.

Experiment [1] addresses T13 monophosphorylated Rad51 NTD peptide (human, UniProt Q06609, phosphothreonine at T13). As to the kind of experiment: ITC. In general terms: Isothermal titration calorimetry measures the heat released or taken up as one component is titrated into another.
Experiment [2] concerns the target T13/S14 diphosphorylated Rad51 NTD peptide (human, UniProt Q06609, phosphothreonine at T13; phosphoserine at S14). Put plainly: ITC.

B1: Nbs1 (1-382) K160M (domain or fragment)
chain: MWKLLPAAGPAGGEPYRLLTGVEYVVGRKNCAILIENDQSISRNHAVLTANFSVTNLSQTDEIPVLTLKDNSKYGTFVNEEKMQNGFSRTLKSGDGITFGVFGSKFRIEYEPLVACSSCLDVSGKTALNQAILQLGGFTVNNWTEECTHLVMVSVKVTIMTICALICGRPIVKPEYFTEFLKAVESKKQPPQIESFYPPLDEPSIGSKNVDLSGRQERKQIFKGKTFIFLNAKQHKKLSSAVVFGGGEARLITEENEEEHNFFLAPGTCVVDTGITNSQTLIPDCQKKWIQSIMDMLQRQGLRPIPEAEIGLAVIFMTTKNYCDPQGHPSTGLKTTTPGPSLSQGVSVDEKLMPSAPVNTTTYVADTESEQADTWDLSERPK
Regarding B1, in experiment [1], binding was put at a Kd of 24 µM.

B2: recombinant fragment of Nbs1 (residues 1-382), wild type (domain or fragment)
chain: B1 chain with M160K
The molecule B2 displayed a Kd in experiment [2] of 57 µM.
